Laboratory results from patent US20260258124A1 (CIMEIO THERAPEUTICS, published 2026).

Columns and labels:
[1] = biological target: T1, human recombinant CD117 (c-Kit) from Sino Biological (Catalog No. 11996-H08H) (human, UniProt P10721 26-524); experiment: BLI Octet, set-up as in Example 2
T1 construct: also called soluble antigen
Experimental: IgG antibodies were immobilized on biosensors using suitable capture surfaces and binding of soluble antigen to immobilized antibodies was monitored by BLI (Octet). The resulting sensorgrams were analyzed using the supplied software (Fortebio). As antigen human recombinant CD117 (c-Kit) from Sino Biological was used (Catalog No. 11996-H08H, Lot #LC14SE0812). As a pre-experiment a series of experiments was performed to optimize assay parameters. The following parameters were selected:
(§1) In the main experiment kinetic assays were performed by first capturing IgG using anti-human Fc biosensors. The mAb capture biosensors were then submerged in wells containing different concentrations of antigen (association stage) followed by a dissociation step in running buffer. To allow for double reference correction, IgG-captured sensors were dipped into wells containing only buffer and blank sensors were also dipped into wells containing the antigen. This referencing provided a means of compensating for both the natural dissociation of the capture IgG and non-specific binding of the antigen to the sensor surface. Steps were performed at 25° C. at a constant shaking of 1000 rpm. New sensors were used for each sample. Dissociation rate constants (Kd) were calculated using the ForteBio Data Analysis software. All consumables used were those recommended by ForteBio.

[2] = biological target: T1, human recombinant CD117 (c-Kit) from …; experiment: BLI Octet, set-up as in Example 2; remark: listed apart in the source
Experimental: as §1
All samples were diluted in freshly prepared running buffer. Antibody variants were immobilized onto the surface of a series of biosensors using the capture methods described. Antigen was passed over the surface to generate a binding response. Binding data for the IgG:antigen interactions were collected at 25° C. on the biosensors. A dilution series of the antigen was used in the association step, in order to fit results globally and get the best values for ka, kd, and KD. The response data for the binding of antigen to the surface immobilized IgG were fitted to a 1:1 binding model. HC0 LC0 refers to murine SR-1.

[3] = biological target: T2, CD117 on wild-type cells (TF-1 cells, HSPCs, HSCs) (human, UniProt P10721 26-976); experiment: cell-based or functional assay
T2 sequence (P10721 26-976 limits assumed): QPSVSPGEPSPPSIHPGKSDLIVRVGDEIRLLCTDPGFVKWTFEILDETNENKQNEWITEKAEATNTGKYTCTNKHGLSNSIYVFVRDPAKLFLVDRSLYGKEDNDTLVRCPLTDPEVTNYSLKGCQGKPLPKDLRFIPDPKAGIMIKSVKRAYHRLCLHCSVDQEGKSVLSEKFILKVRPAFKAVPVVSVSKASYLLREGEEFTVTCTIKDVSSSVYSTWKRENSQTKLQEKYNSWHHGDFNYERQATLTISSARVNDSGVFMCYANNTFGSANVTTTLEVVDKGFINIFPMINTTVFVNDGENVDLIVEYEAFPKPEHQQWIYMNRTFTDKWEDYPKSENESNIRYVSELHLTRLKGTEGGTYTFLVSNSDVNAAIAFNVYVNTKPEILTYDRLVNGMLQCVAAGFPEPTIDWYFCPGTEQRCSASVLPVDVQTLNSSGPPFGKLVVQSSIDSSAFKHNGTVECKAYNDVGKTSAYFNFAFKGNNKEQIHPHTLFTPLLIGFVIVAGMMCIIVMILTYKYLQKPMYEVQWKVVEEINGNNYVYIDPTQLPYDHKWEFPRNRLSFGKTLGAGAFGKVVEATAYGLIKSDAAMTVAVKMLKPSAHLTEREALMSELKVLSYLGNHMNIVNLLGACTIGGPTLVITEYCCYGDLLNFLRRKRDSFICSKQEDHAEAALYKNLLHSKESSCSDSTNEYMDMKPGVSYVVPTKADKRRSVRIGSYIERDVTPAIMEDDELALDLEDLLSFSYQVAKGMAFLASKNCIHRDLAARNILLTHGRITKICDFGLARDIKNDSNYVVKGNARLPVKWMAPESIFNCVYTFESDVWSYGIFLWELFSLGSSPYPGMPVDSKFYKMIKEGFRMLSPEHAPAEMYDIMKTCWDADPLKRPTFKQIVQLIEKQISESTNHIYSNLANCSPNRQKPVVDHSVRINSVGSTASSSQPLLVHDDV

[4] = biological target: T2, CD117 on wild-type cells (TF-1 cells, …); experiment: cell-based or functional assay; remark: listed apart in the source
[5] = biological target: T2, CD117 on wild-type cells (TF-1 cells, …); experiment: flow cytometry on TF-1 wild-type cells, Fc receptors blocked, goat anti-human IgG Alexa Fluor 488 as secondary antibody
Experimental: Binding of the antibodies of the present disclosure to CD117 on TF-1 cells was measured. TF-1 wild-type cells were seeded at a concentration of 100,000 cells/well. A Fc receptor blocking was performed using 25 μL TruStain FcX (BioLegend) for 15 min. Next cells are treated with various concentrations of the antibodies to be tested (0.0001-5 μg/ml). After additional 30 min cells were washed, then a secondary antibody was added to the cells (IgG (H+L) Cross-Adsorbed Goat anti-Human, Alexa Fluor® 488). After 30 min and two additional wash steps a live dead staining via 7AAD (7-aminoactinomycin D) was performed using 0.5 μg/mL 7AAD for 10 min before analyzing cells in a flow cytometer.

T1 sequence (P10721 26-524 limits assumed): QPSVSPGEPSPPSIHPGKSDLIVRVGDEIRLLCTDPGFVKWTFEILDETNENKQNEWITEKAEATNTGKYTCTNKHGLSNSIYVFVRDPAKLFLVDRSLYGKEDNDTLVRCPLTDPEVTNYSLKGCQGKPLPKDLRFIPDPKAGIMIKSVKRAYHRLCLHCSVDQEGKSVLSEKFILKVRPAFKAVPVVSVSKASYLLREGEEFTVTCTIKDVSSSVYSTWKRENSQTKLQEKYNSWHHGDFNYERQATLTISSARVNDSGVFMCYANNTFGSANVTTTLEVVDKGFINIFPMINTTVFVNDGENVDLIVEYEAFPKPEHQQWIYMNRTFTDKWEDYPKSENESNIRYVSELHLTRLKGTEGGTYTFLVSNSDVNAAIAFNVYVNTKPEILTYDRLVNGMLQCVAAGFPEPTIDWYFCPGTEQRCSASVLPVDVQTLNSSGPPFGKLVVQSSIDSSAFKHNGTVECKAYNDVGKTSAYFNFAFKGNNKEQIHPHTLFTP

binding result [1]	Kd [2] [nM]	IC50, inhibition of SCF-dependent proliferation of CD34-positive HSPCs (CellTiter-Glo) [3] [µg/mL]	IC50, inhibition of SCF-dependent proliferation of TF-1 cells (CellTiter-Glo), Average [4] [µg/mL]	IC50, inhibition of SCF-dependent proliferation of TF-1 cells (CellTiter-Glo), Experiment #1 [4] [µg/mL]	IC50, inhibition of SCF-dependent proliferation of TF-1 cells (CellTiter-Glo), Experiment #2 [4] [µg/mL]	EC50 (read off the curve) [5] [µg/mL]	Binder
binds	–	–	–	–	–	–	Dreieckhorn (antibody, V domains shown, IgG; also called VH1.4/VL1.32) VH: QVQLVQSGAEVKKPGASVKVSCKASGYTFTSYNMHWVRQAPGQGLEWMGVIYSGQGDTSYNQKFKGRVTMTTDTSTSTAYMELRSLTSDDTAVYYCARERDTRFGNWGQGTLVTVSA VL: EIVLTQSPSSLSASVGDRVTITCRASESVDIYGESFMHWYQQKPGKAPKLLIYSASNLESGVPSRFSGSGSGTDFTLTISSLQPEDFATYYCQQNREEPYTFGQGTKLEIK
–	0.19	0.00521	0.0176	0.0122	0.0231	~0.02	Piz Bernina (antibody, V domains shown, IgG; also called VH1/VL1.17) VH: QVQLVQSGAEVKKPGASVKVSCKASGYTFTSYNMHWVRQAPGQGLEWMGVIYSGNGDTSYNQKFKGRVTMTTDTSTSTAYMELRSLTSDDTAVYYCARERDTRFGNWGQGTLVTVSA VL: EIVLTQSPSSLSASVGDRVTITCRASESVDIYGESFMHWYQQKPGKAPKLLIYLASNLESGVPSRFSGSGSGTDFTLTISSLQPEDFATYYCQQNNEEPYTFGQGTKLEIKR
–	3.3	> 10	> 0.5	> 0.5	> 0.5	~0.1	Piz Argient (antibody, V domains shown, IgG; also called VH1/VL1.27) VH: QVQLVQSGAEVKKPGASVKVSCKASGYTFTSYNMHWVRQAPGQGLEWMGVIYSGNGDTSYNQKFKGRVTMTTDTSTSTAYMELRSLTSDDTAVYYCARERDTRFGNWGQGTLVTVSA VL: EIVLTQSPSSLSASVGDRVTITCRASESVDIYGHSFMHWYQQKPGKAPKLLIYLASNLESGVPSRFSGSGSGTDFTLTISSLQPEDFATYYCQQNKEEPYTFGQGTKLEIKR
binds	–	–	–	–	–	–	Nesthorn (antibody, V domains shown, IgG; also called VH1.4/VL1.31) VH: QVQLVQSGAEVKKPGASVKVSCKASGYTFTSYNMHWVRQAPGQGLEWMGVIYSGQGDTSYNQKFKGRVTMTTDTSTSTAYMELRSLTSDDTAVYYCARERDTRFGNWGQGTLVTVSA VL: EIVLTQSPSSLSASVGDRVTITCRASESVDIYGESFMHWYQQKPGKAPKLLIYEASNLESGVPSRFSGSGSGTDFTLTISSLQPEDFATYYCQQNREEPYTFGQGTKLEIK
binds	–	–	–	–	–	–	Piz Palü (antibody, V domains shown, IgG; also called VH1.4/VL1.30) VH: QVQLVQSGAEVKKPGASVKVSCKASGYTFTSYNMHWVRQAPGQGLEWMGVIYSGQGDTSYNQKFKGRVTMTTDTSTSTAYMELRSLTSDDTAVYYCARERDTRFGNWGQGTLVTVSA VL: EIVLTQSPSSLSASVGDRVTITCRASESVDIYGESFMHWYQQKPGKAPKLLIYHASNLESGVPSRFSGSGSGTDFTLTISSLQPEDFATYYCQQNREEPYTFGQGTKLEIK
–	8.3	> 10	> 0.5	> 0.5	> 0.5	~0.2	Piz Roseg (antibody, V domains shown, IgG; also called VH1/VL1.28) VH: QVQLVQSGAEVKKPGASVKVSCKASGYTFTSYNMHWVRQAPGQGLEWMGVIYSGNGDTSYNQKFKGRVTMTTDTSTSTAYMELRSLTSDDTAVYYCARERDTRFGNWGQGTLVTVSA VL: EIVLTQSPSSLSASVGDRVTITCRASESVDIYGSSFMHWYQQKPGKAPKLLIYKASNLESGVPSRFSGSGSGTDFTLTISSLQPEDFATYYCQQNKEEPYTFGQGTKLEIKR
binds	–	–	–	–	–	–	Piz Morteratsch (antibody, V domains shown, IgG; also called VH1.4/VL1.33) VH: QVQLVQSGAEVKKPGASVKVSCKASGYTFTSYNMHWVRQAPGQGLEWMGVIYSGQGDTSYNQKFKGRVTMTTDTSTSTAYMELRSLTSDDTAVYYCARERDTRFGNWGQGTLVTVSA VL: EIVLTQSPSSLSASVGDRVTITCRASESVDIYGESFMHWYQQKPGKAPKLLIYQASNLESGVPSRFSGSGSGTDFTLTISSLQPEDFATYYCQQNREEPYTFGQGTKLEIK
binds	–	–	–	–	–	–	Balmhorn (antibody, V domains shown, IgG; also called VH1.4/VL1.19) VH: QVQLVQSGAEVKKPGASVKVSCKASGYTFTSYNMHWVRQAPGQGLEWMGVIYSGQGDTSYNQKFKGRVTMTTDTSTSTAYMELRSLTSDDTAVYYCARERDTRFGNWGQGTLVTVSA VL: EIVLTQSPSSLSASVGDRVTITCRASESVDIYGESFMHWYQQKPGKAPKLLIYLASNLESGVPSRFSGSGSGTDFTLTISSLQPEDFATYYCQQNKEEPYTFGQGTKLEIKR
